Laboratory results reported in publication PMC8883962.

Legend:
[1] = biological target: Staphylococcal Protein A (SpA) (Staphylococcus aureus) (UniProt P38507); assay: BLI
[2] = biological target: Streptococcal Protein G (SpG) (groups C and G of Streptococcal bacteria) (UniProt P06654); assay: BLI

Row | Substance | Kd [1] [pM] | Kd [2] [pM]
1 | Pertuzumab Vκ2–VH2 IgG1 (from UniProt P01857) | 1820 | 360
2 | Pertuzumab Vκ2–VH3 IgG1 (from UniProt P01857) | 760 | 380
3 | Pertuzumab Vκ2–VH4 IgG1 (from UniProt P01857) | 1570 | 250
4 | Pertuzumab Vκ2–VH5 IgG1 (from UniProt P01857) | 1620 | 300
5 | Pertuzumab Vκ2–VH6 IgG1 (from UniProt P01857) | 1550 | 320
6 | Pertuzumab Vκ2–VH7 IgG1 (from UniProt P01857) | – | 360
7 | Pertuzumab Vκ5–VH3 IgG1 (from UniProt P01857) | 940 | 340
8 | Pertuzumab Vκ5–VH7 IgG1 (from UniProt P01857) | – | 320
9 | Pertuzumab Vκ6–VH1 IgG1 (from UniProt P01857) | 940 | 290
10 | Pertuzumab Vκ6–VH2 IgG1 (from UniProt P01857) | 790 | 310
11 | Pertuzumab Vκ6–VH3 IgG1 (from UniProt P01857) | 410 | 280
12 | Pertuzumab Vκ6–VH4 IgG1 (from UniProt P01857) | 810 | 270
13 | Pertuzumab Vκ6–VH5 IgG1 (from UniProt P01857) | 1260 | 260
14 | Pertuzumab Vκ6–VH7 IgG1 (from UniProt P01857) | 980 | 280
15 | Trastuzumab Vκ2–VH1 IgG1 (from UniProt P01857) | – | 390
16 | Trastuzumab Vκ2–VH2 IgG1 (from UniProt P01857) | 1460 | 690
17 | Trastuzumab Vκ2–VH3 IgG1 (from UniProt P01857) | 240 | 290
18 | Trastuzumab Vκ2–VH4 IgG1 (from UniProt P01857) | 1290 | 280
19 | Trastuzumab Vκ2–VH5 IgG1 (from UniProt P01857) | 1110 | 270
20 | Trastuzumab Vκ2–VH6 IgG1 (from UniProt P01857) | 1790 | –
21 | Trastuzumab Vκ2–VH7 IgG1 (from UniProt P01857) | 530 | 230
22 | Trastuzumab Vκ5–VH3 IgG1 (from UniProt P01857) | – | 320
23 | Trastuzumab Vκ6–VH1 IgG1 (from UniProt P01857) | – | 320
24 | Trastuzumab Vκ6–VH3 IgG1 (from UniProt P01857) | 310 | 270
25 | Trastuzumab Vκ6–VH4 IgG1 (from UniProt P01857) | – | 360
26 | Trastuzumab Vκ6–VH5 IgG1 (from UniProt P01857) | 840 | –
27 | Trastuzumab Vκ6–VH6 IgG1 (from UniProt P01857) | 1780 | 510
28 | Trastuzumab Vκ6–VH7 IgG1 (from UniProt P01857) | 600 | 300
